Reference: paper PMC10786891, “Massively parallel profiling of RNA-targeting CRISPR-Cas13d”
Numbering of substitutions follows the chain as printed. Names may count otherwise.

T1: EsCas13d, nuclease-dead (Eubacterium siraeum, UniProt B0MS50, R295A;H300A;R849A;H854A)
T1 sequence: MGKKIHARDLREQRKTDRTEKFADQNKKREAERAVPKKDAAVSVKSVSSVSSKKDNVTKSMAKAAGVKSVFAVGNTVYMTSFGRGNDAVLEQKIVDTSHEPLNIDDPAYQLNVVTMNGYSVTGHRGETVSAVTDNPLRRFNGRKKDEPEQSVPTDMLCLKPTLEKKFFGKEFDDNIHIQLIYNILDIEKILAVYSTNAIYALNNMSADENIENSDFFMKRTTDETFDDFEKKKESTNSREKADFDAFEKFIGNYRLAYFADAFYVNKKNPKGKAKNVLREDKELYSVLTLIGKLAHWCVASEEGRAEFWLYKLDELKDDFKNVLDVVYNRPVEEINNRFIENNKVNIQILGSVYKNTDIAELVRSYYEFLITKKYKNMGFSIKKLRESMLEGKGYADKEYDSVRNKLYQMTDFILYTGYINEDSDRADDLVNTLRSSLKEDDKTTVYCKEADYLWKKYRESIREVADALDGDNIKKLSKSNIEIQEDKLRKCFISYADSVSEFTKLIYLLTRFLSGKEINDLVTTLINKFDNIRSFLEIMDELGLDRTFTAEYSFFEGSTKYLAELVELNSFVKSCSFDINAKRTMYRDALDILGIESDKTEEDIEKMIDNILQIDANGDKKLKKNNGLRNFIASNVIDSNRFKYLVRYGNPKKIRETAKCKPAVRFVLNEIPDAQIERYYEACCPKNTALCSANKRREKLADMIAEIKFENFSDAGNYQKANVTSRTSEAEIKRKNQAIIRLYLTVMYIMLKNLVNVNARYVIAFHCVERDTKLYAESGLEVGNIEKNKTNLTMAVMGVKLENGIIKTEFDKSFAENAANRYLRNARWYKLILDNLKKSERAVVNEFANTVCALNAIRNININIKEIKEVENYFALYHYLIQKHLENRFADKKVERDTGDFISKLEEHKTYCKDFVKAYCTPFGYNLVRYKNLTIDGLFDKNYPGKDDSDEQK

B1: target 2 MT 5'PFS GGC 3'PFS AAG (mixed)
RNA 1: CACCCGUGCAAAAUUGCAGGGGUCUAAAACCUUCUCCAAAUUGUUUCAUCCU
RNA 2: GGGAAUGGAUCCACAUCUACGAAUUCGGCAGGAUGAAACAAUUUGGAGAAGAAGAGAUCGGAAGAGCACACGU
B2: target 2 MT 5'PFS CUU 3'PFS AUG (mixed)
RNA 1: B1 RNA 1
RNA 2: B1 RNA 2 with G27C, G28U, C29U, A53U
B3: target 2 MT 5'PFS GGC 3'PFS CGG (mixed)
RNA 1: B1 RNA 1
RNA 2: B1 RNA 2 with A52C, A53G
B4: target 2 MT 5'PFS GGC 3'PFS AAA (mixed)
RNA 1: B1 RNA 1
RNA 2: B1 RNA 2 with G54A
B5: target 2 MT 5'PFS CAA 3'PFS AGC (mixed)
RNA 1: B1 RNA 1
RNA 2: B1 RNA 2 with G27C, G28A, C29A, A53G, G54C
B6: target 2 MT 5'PFS CAU 3'PFS CAC (mixed)
RNA 1: B1 RNA 1
RNA 2: B1 RNA 2 with G27C, G28A, C29U, A52C, G54C
B7: target 2 MT 5'PFS AGG 3'PFS AGA (mixed)
RNA 1: B1 RNA 1
RNA 2: B1 RNA 2 with G27A, C29G, A53G, G54A
B8: target 2 MT 5'PFS GUA 3'PFS UAU (mixed)
RNA 1: B1 RNA 1
RNA 2: B1 RNA 2 with G28U, C29A, A52U, G54U
B9: target 2 MT 5'PFS AAU 3'PFS ACC (mixed)
RNA 1: B1 RNA 1
RNA 2: B1 RNA 2 with G27A, G28A, C29U, A53C, G54C
B10: target 2 MT 5'PFS ACU 3'PFS UCA (mixed)
RNA 1: B1 RNA 1
RNA 2: B1 RNA 2 with G27A, G28C, C29U, A52U, A53C, G54A
B11: target 2 MT 5'PFS ACU 3'PFS UCG (mixed)
RNA 1: B1 RNA 1
RNA 2: B1 RNA 2 with G27A, G28C, C29U, A52U, A53C
B12: target 2 MT 5'PFS GCU 3'PFS AGG (mixed)
RNA 1: B1 RNA 1
RNA 2: B1 RNA 2 with G28C, C29U, A53G
B13: target 2 MT 5'PFS UCU 3'PFS UUU (mixed)
RNA 1: B1 RNA 1
RNA 2: B1 RNA 2 with G27U, G28C, C29U, A52U, A53U, G54U
B14: target 2 MT 5'PFS UCG 3'PFS CUG (mixed)
RNA 1: B1 RNA 1
RNA 2: B1 RNA 2 with G27U, G28C, C29G, A52C, A53U
B15: target 2 MT 5'PFS UUU 3'PFS ACC (mixed)
RNA 1: B1 RNA 1
RNA 2: B1 RNA 2 with G27U, G28U, C29U, A53C, G54C
B16: target 2 MT 5'PFS GGC 3'PFS AAC (mixed)
RNA 1: B1 RNA 1
RNA 2: B1 RNA 2 with G54C
B17: target 2 MT 5'PFS ACG 3'PFS ACG (mixed)
RNA 1: B1 RNA 1
RNA 2: B1 RNA 2 with G27A, G28C, C29G, A53C
B18: target 2 MT 5'PFS ACU 3'PFS UCU (mixed)
RNA 1: B1 RNA 1
RNA 2: B1 RNA 2 with G27A, G28C, C29U, A52U, A53C, G54U
B19: target 2 MT 5'PFS AUU 3'PFS UGC (mixed)
RNA 1: B1 RNA 1
RNA 2: B1 RNA 2 with G27A, G28U, C29U, A52U, A53G, G54C
B20: target 2 MT 5'PFS GGC 3'PFS CGC (mixed)
RNA 1: B1 RNA 1
RNA 2: B1 RNA 2 with A52C, A53G, G54C
B21: target 2 MT 5'PFS ACG 3'PFS ACC (mixed)
RNA 1: B1 RNA 1
RNA 2: B1 RNA 2 with G27A, G28C, C29G, A53C, G54C
B22: target 2 MT 5'PFS GGC 3'PFS CGA (mixed)
RNA 1: B1 RNA 1
RNA 2: B1 RNA 2 with A52C, A53G, G54A
B23: target 2 MT 5'PFS ACG 3'PFS ACA (mixed)
RNA 1: B1 RNA 1
RNA 2: B1 RNA 2 with G27A, G28C, C29G, A53C, G54A
B24: target 2 MT 5'PFS ACU 3'PFS UCC (mixed)
RNA 1: B1 RNA 1
RNA 2: B1 RNA 2 with G27A, G28C, C29U, A52U, A53C, G54C
B25: target 2 MT 5'PFS AGG 3'PFS AGC (mixed)
RNA 1: B1 RNA 1
RNA 2: B1 RNA 2 with G27A, C29G, A53G, G54C
B26: target 2 MT 5'PFS GCU 3'PFS CCA (mixed)
RNA 1: B1 RNA 1
RNA 2: B1 RNA 2 with G28C, C29U, A52C, A53C, G54A
B27: target 2 MT 5'PFS UUU 3'PFS ACA (mixed)
RNA 1: B1 RNA 1
RNA 2: B1 RNA 2 with G27U, G28U, C29U, A53C, G54A
B28: target 2 MT 5'PFS UUU 3'PFS ACG (mixed)
RNA 1: B1 RNA 1
RNA 2: B1 RNA 2 with G27U, G28U, C29U, A53C
B29: target 2 MT 5'PFS UUU 3'PFS ACU (mixed)
RNA 1: B1 RNA 1
RNA 2: B1 RNA 2 with G27U, G28U, C29U, A53C, G54U
B30: target 2 MT 5'PFS ACG 3'PFS ACU (mixed)
RNA 1: B1 RNA 1
RNA 2: B1 RNA 2 with G27A, G28C, C29G, A53C, G54U
B31: target 2 MT 5'PFS GCU 3'PFS AGA (mixed)
RNA 1: B1 RNA 1
RNA 2: B1 RNA 2 with G28C, C29U, A53G, G54A
B32: target 2 MT 5'PFS CAU 3'PFS CAA (mixed)
RNA 1: B1 RNA 1
RNA 2: B1 RNA 2 with G27C, G28A, C29U, A52C, G54A
B33: target 2 MT 5'PFS AAU 3'PFS ACG (mixed)
RNA 1: B1 RNA 1
RNA 2: B1 RNA 2 with G27A, G28A, C29U, A53C
B34: target 2 MT 5'PFS UCG 3'PFS CUC (mixed)
RNA 1: B1 RNA 1
RNA 2: B1 RNA 2 with G27U, G28C, C29G, A52C, A53U, G54C
B35: target 2 MT 5'PFS CUU 3'PFS AUC (mixed)
RNA 1: B1 RNA 1
RNA 2: B1 RNA 2 with G27C, G28U, C29U, A53U, G54C
B36: target 1 insA 3' of 17 (mixed)
RNA 1: CACCCGUGCAAAAAUGCAGGGGUCUAAAACUGAGCGGAUAACCUCUCUAUGG
RNA 2: GGGAAUGGAUCCACAUCUACGAAUUCGUACCAUAGAAGAGGUUAUCCGCUCACCGAGAUCGGAAGAGCACACGU
B37: target 1 A16U,G17U (mixed)
RNA 1: B36 RNA 1
RNA 2: GGGAAUGGAUCCACAUCUACGAAUUCGUACCAUAUUGAGGUUAUCCGCUCACCGAGAUCGGAAGAGCACACGU
B38: target 1 insG 3' of 20,insU 3' of 12 (mixed)
RNA 1: B36 RNA 1
RNA 2: GGGAAUGGAUCCACAUCUACGAAUUCGUACCAGUAGAGAGGUUUAUCCGCUCACCGAGAUCGGAAGAGCACACGU

Target: T1, EsCas13d, nuclease-dead
Experiment: crRNA (strand 1, pre-loaded); Mg2+; 40 mM Tris-HCl pH 7.5, 150 mM NaCl, 6 mM MgCl2, 1 mM DTT, 0.1% Tween-20, 0.2 mg/ml BSA; 25 C; 10 min per concentration, then washed
Conditions: tags: His6-TwinStrep-SUMO cleaved; N-terminal SNAP kept (SNAP-Surface 488); label: 3' end held by stalled T7 RNA polymerase

Row | Binder | Kd
1 | B1 | 13.1 ± 2 nM
2 | B2 | 4.1 ± 0.4 nM
3 | B3 | 14.1 ± 1.7 nM
4 | B4 | 8.9 ± 1.5 nM
5 | B5 | 7.6 ± 2.2 nM
6 | B6 | 4.6 ± 0.8 nM
7 | B7 | 3.4 ± 0.4 nM
8 | B8 | 7.8 ± 0.7 nM
9 | B9 | 10.5 ± 1.6 nM
10 | B10 | 7.3 ± 1.7 nM
11 | B11 | 6.7 ± 1 nM
12 | B12 | 7.9 ± 0.8 nM
13 | B13 | 10.3 ± 1 nM
14 | B14 | 40 ± 9 nM
15 | B15 | 14.1 ± 3.4 nM
16 | B16 | 11.7 ± 1.4 nM
17 | B17 | 15 ± 4 nM
18 | B18 | 8.4 ± 0.9 nM
19 | B19 | 9.7 ± 1.4 nM

Row | Binder | Kd
20 | B20 | 12.5 ± 1.1 nM
21 | B21 | ~20 nM
22 | B22 | 11.4 ± 1.2 nM
23 | B23 | 9.7 ± 2.4 nM
24 | B24 | 14.3 ± 3.5 nM
25 | B25 | 4.8 ± 0.5 nM
26 | B26 | 25 ± 12 nM
27 | B27 | 6.1 ± 0.7 nM
28 | B28 | 10.6 ± 2 nM
29 | B29 | 9.1 ± 0.8 nM
30 | B30 | 17 ± 5 nM
31 | B31 | 7.3 ± 2.1 nM
32 | B32 | 5.2 ± 0.9 nM
33 | B33 | 5.5 ± 0.6 nM
34 | B34 | 23 ± 6 nM
35 | B35 | 5.1 ± 0.9 nM
36 | B36 | 11.8 ± 1.3 nM
37 | B37 | 22 ± 2.1 nM
38 | B38 | 25 ± 4 nM
